The data set concerns the target T1, His-LexA (Synechocystis sp. PCC 6803) (UniProt P73722).
T1 sequence: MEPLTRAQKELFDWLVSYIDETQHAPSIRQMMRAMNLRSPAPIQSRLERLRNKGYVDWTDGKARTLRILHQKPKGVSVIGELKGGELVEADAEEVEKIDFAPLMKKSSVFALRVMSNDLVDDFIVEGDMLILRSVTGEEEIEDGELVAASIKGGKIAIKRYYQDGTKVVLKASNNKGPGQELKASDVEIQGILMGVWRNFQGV
The data set can be described thus: EMSA. As to conditions: DIG Gel Shift Kit 2nd generation (Roche), as in Kizawa et al. (ref 9); 6% polyacrylamide gel; buffer, salt, pH and temperature not given.
Regarding “GTGGGAAAGTTCCACCTATACCATGCCTTGAAAATTGGTATGGGTCAAATCAGATAGTTCTTTTTGACTACTAATTTTGTTGCTAGCAGCGTTGTCAATCCCATCGCTCTGGTCTGGGATGCAAATGGCAGGAAAATTCTGCTCCCCTTGGGGGAAACGAGTTACGATGGGGGCGACGTTTGCTTTGTTTGCGACATAAT (double strand) [PggtB]”, the binding entry is “binds”.

For the sequence “TAACTCGTCACACCCCATGTGGGCAATGGTATCGTATTCTGCCCAGGTTTCCACCCCTTCAGCCGTTACTCGCAACTCTAGTTCGTGGGCTAGGTTGATAATTGAGGCGGTGATAGTTTTATTCTTGGCGTTTTTGTCAATGTGACGCACAAAGCTTTGATCTATTTTCAGCACATCAAAGGGGAACTGCTGCAGATAAC (double strand) [PggpP]”, the binding entry is on record as “binds”.

With “TGCAATTTCCTCCTGTCCTCAGGGGACAAACTATATTAAGAAAGTTTACGGGATTATGTTGCCCGGGGAGAATTTGTCCGTGGGGGGTTTACCGACCGATCGCCGGTGAGAAGTACCAGGATAGCTTTATAAAGTTTTGTTACAATGGCAGAAGAAATTCTCAGAAACCCAGCC (double strand) [PnblB]”, the binding entry is listed as “binds”.

Consider “TGGGATCAAACAACAAGAAAAAATCAATTTACCCTGCCCATGGCAATAGTTTTAAGGTTAACAAAAAAAATAGAATTTACCGCAATCGACGGGTAAATTTCCAGAGGATACCCCCAACTCCAGAAGCAGAAATCTTGCCAGAAAAGCTTTTTCTGTTACTATACTTAACAAGTAACTACTTTTTCC (double strand) [PggpS]”, for which the binding result was “binds”.

For the sequence “TGGGCAGGGTAAATTGATTTTTTCTTGTTGTTTGATCCCATTTTCCAGTCTTTTTGACTTCCATTCAGTCAGGATAATTTTTGCAGTTTTTTTATGGAGTTTTGATAACATTGAGCTTTGCCCCCGGCGATCGCCTAGGGATAAACAATAAACGTGTGAACTAATATGCCTGGATTTATCCCTGGATTGACATTGTTTTTGCC (double strand) [PgghA]”, the binding result was “binds”.

With “TTTTTCACAACCTAAGACTTCCTTCCAAAAATCCATAGGGCGGTGGAAGCTTAGCTATTTTTACCATTTTGTTTTGCCACTCAAATATTTACTTAAGGTGAGGTAAAAACTCATCTTTTTTTTACTAAAAATTGCGGCTAGAAATGTAATTTCGGCAATCCCCCCACCTTCTTTCCTGAAAACCGAATCTAACCTGGAAGGGGAAATTTTAAGATAGAACCATTCAAGGGTAATCAATTCCTTCCACACATCAGGAGTTAACATT (double strand) [PhspA]”, the binding entry was “binds”.

For the origin of these results see article PMC7567884.
